Biological target: Avi-tagged-eIF4E (human, UniProt P06730 1-217, biotin (co-transfected bacterial biotin ligase BirA; loaded on streptavidin tips))
Assay: BLI

Avi-tagged-eIF4E, sequence (P06730 whole entry): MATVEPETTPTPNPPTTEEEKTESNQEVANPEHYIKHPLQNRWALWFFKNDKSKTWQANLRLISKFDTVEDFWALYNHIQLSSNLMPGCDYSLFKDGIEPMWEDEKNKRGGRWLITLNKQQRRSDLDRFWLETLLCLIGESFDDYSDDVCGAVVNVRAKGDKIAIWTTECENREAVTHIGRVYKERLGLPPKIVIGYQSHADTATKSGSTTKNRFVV

B1: Pep8 peptide (peptide)
peptide: YPYAASPA
- Kd: 25 µM
